Results on 6 molecules are retold here after patent US11789019B2 (priority 2014, dated 2023).

“Also recorded” adds a separate entry of the source. Where two headings read alike, the source gives them in different places.

In assay [1] the target is recombinant Calnexin (Paracoccidioides brasiliensis Calnexin with C-terminal 6xHis tag, from E. coli) (Paracoccidioides brasiliensis).
The test system of assay [2] is 1807 cells. The format is cell-based, mouse. The note with it: calnexin peptide #1 13 amino acid sequence of the named species.
The subject of assay [3] is calnexin peptide #1-specific CD4+ T cells. The format is in vivo, mouse.
Assay [4] has as its system B. dermatitidis strain 26199. The format is in vivo, Blastomyces dermatitidis.
Assay [5] concerns 1807 cells. Description: In vivo activation and proliferation of adoptively transferred 1807 cells. Conditions: emulsified in complete Freund's adjuvant; CD44, CFSE.
The next assay relates to human CD4+ T cells. Description: In vitro stimulation and identification of activated human T cells (PBMC, CD154 enrichment, CD137). It counts as cell-based.
[6] abbreviates: 10 μg/ml, CD137 on CD154 enriched CD4+ cells, positive >3-fold over medium alone.

Regarding “1807 T-cell receptor (Blastomyces-specific TCR transgenic 1807 CD4+ T cells)”, in assay [1], the activation (CD44) and proliferation (CFSE) of adoptively transferred 1807 cells in vivo came out at 85%.
Consider “LVMKSRASHYAIS (Candida albicans) [Candida albicans_5314]”, for which the 1807 reactive entry in the assay on 1807 cells [2] (listed as SEQ ID NO: 9) is “not reactive”.
With “LVLKNEAAHHAIS (listed as Pneumocystis carinii) [Pneumocystis carinii_Rat Form 1]”, the 1807 reactive result with 1807 cells [2] (listed as SEQ ID NO: 6) is recorded as “not reactive”.
As for “LVVKNPAAHHAIS (Blastomyces dermatitidis of strains 26199, 18808, Er-3, 14081; Histoplasma capsulatum of strains G186AR, Nam1, H88, H143; Aspergillus sp.1 of strain group.1; Arthroderma; listed as Ajellomyces capsulatus, listed as Ajellomyces dermatitidis, listed as Arthroderma benhamiae) [Peptide #1, synthetic 13 aa peptide, residues 103-115 of B. dermatitidis calnexin]”, in assay [3] (delivery via the i.v. route), the “calnexin-specific T cells vs. number of cells in control mice” value is on record as “more than 20 fold”; the “pool of calnexin-specific T cells in the draining lymph nodes and spleen” value is recorded as greater than 1000 cells. The “tetramer positive CD4+ T cells per animal” value in assay [3] (naïve C57BL/6 mice) was 30. In addition, the “protection against infection compared to preceding approaches” value in assay [4] (i.v. delivery of calnexin peptide) is on record as “vaccine efficacy was unchanged”.
Turning to “LVLKSRAKHHAIS (listed as Homo sapiens) [SEQ ID NO: 10, reference compound]”, in the assay on 1807 cells [2], the 1807 reactive result is recorded as “not reactive”.

B1: rCalnexin: recombinant Paracoccidioides brasiliensis Calnexin with C-terminal 6×His tag expressed in E. coli, 63 kD (protein)
chain: MRLNASLASLILSSIALIGNVHAEDEVKEDATSTSSVIEKPTFTPTTLKAPFLEQFTDGWETRWTPSHAKKEDSKSEEDWAYVGTWAVEEPHVFNGMVGDKGLVVKNPAAHHAISAKFPKKIDNKGKTLVVQYEVKLQNSLNCGGAYMKLLQDNKKLHAEEFSNTSPYVIMFGPDKCGVTNKVHFIFKHKNPKTGEYEEKHMKLPPAVRVSKLSTLYTLIVNPDQSFQIRIDGAAVKNGTLLEDFSPAVNPEKEIDDPEDKKPEDWVDEAHIPDPEATKPEDWDEDAPYEIVDTDATQPEDWLVDEPTSIPDPEAQKPEDWDDEEDGDWIPPTIPNPKCSEVSGCGMWEPPMKKNPEYKGKWTAPMIDNPAYKGPWAPRKIANPNYFEDKTPSNFEPMGAIGFEIWTMQNDILFDNIYIGHSVEDAEKLKAETWDLKHPVEVAEEEAARPKDEEKKEGTLSFKEAPVKYIRGKIELFISLALENPVEAVKAVPEVAGGLGALLVTLVLIIVGAVGLGSPSPAPAAKKQAEKGKEKTAEAVSTAADNVKGEAKKRSGKAGE
On to B1, for which the “tetramer-positive cells displaying CCR6 or CXCR3” value in assay [3] (draining lymph nodes after vaccination) is on record as 15-20%. Moreover, in assay [3] (mouse, in vivo), the “proportion of CD44+ CD4+ T cells recruited to lung that are tetramer positive” value was “more than doubles”, the “tetramer positive lung cells that produced IL-17” value is listed as “about 50” and the “tetramer-positive cells recruited to the lung that were IL-17 producers” value is roughly 30%. Further, in the assay on 1807 cells [5], the “transferred 1807 cells activated and proliferating” value is listed as greater than 85%. In addition, the survival result in assay [4] (in vivo) is reported as “prolonged survival”. For the same molecule, in the assay with human CD4+ T cells (setting [6]), the “immune subjects that responded” value is reported as “five of six” and the “non-immune subjects that responded” value is given as “One of four”. Moreover, in the assay on human CD4+ T cells (immune subjects), the “concentration dependence of CD4+ T cell response” value is “dose-dependent; also recorded: concentration-dependent manner”, the “frequency of activated (CD154) cells compared with Hsp60” value is listed as “similar” and the “response in the presence of polymyxin B (LPS contribution)” value was “not due to contaminating LPS; also recorded: retained in the presence of polymyxin B”.
